What was measured:
[1] = target: N-terminally His6-tagged NusA^AR2 (E. coli) (UniProt P0AFF6); assay: SPR; Biacore, Sensor Chip NTA, 20°C; N-terminally His6-tagged NusA^AR2 immobilised; single cycle kinetics with SuhB variants at 25, 50, 100, 150 and 200 nM; 20 mM HEPES–NaOH pH 7.5, 50 mM NaCl, 1 mM DTT
[2] = system: SuhB (Escherichia coli DH5α); assay: double filter binding; conditions: Hill slope fit, 50 nM RNA, Filter binding: 20 mM HEPES-NaOH pH 7.5, 50 mM NaCl, 1 mM DTT, room temperature, 20 min, SEC buffer not in material

## SuhB^KL251/254AA (from UniProt P0ADG4 1-267) (natural protein)
[1]
  Kd: 141 µM

## rrnGnut RNA
[2]
  Kd: 3.2 µM
